The source of these data is patent EP4223782A1 (dated 2023).

Some results are limits rather than exact numbers.

Assay [1] addresses TGFβR2(-1) peptide … presented on HLA-DRA/HLA-DRB1*04:01 (human). In words: cell-based or functional assay.
For assay [2], the target named is T1, TGFβR2(-1) frameshift variant (deletion of one adenine in the 10-adenine microsatellite) peptide on … (human).
T1 peptide: VALMSAMTTSSSQKN
The experiment in a line: IFNγ ELISA after 16 h; transduced human CD4+ T cells with BSM cells pulsed with decreasing amounts of peptide; lower bound of the printed range; full-length, on cells.

In assay [3] the target is T1, TGFβR2(-1) frameshift variant (deletion …). In words: IFNγ ELISA after 16 h; transduced human CD4+ T cells with BSM cells pulsed with decreasing amounts of peptide; upper bound of the printed range; full-length, on cells.

B1: TCR1414_2 (TCR, V domains shown)
Valpha: GIQVEQSPPDLILQEGANSTLRCNFSDSVNNLQWFHQNPWGQLINLFYIPSGTKQNGRLSATTVATERYSLLYISSSQTTDSGVYFCAAPSGNTPLVFGKGTRLSVIA
Vbeta: DVKVTQSSRYLVKRTGEKVFLECVQDMDHENMFWYRQDPGLGLRLIYFSYDVKMKEKGDIPEGYSVSREKKERFSLILESASTNQTSMYLCASRVSGANVLTFGAGSRLTVL
For B1, in assay [1], the lowest peptide concentration recognized (IFNy ELISA, BSM cells loaded with different concentrations of peptide) came to 1 nM. The EC50 of peptide in assay [2] was above 1 nM; in assay [3], below 10 nM.

B2: TCR1414_1 (TCR, V domains shown)
Valpha: KQEVTQIPAALSVPEGENLVLNCSFTDSAIYNLQWFRQDPGKGLTSLLLIQSSQREQTSGRLNASLDKSSGRSTLYIAASQPGDSATYLCAVKSGAGSYQLTFGKGTKLSVIP
Vbeta: NAGVMQNPRHLVRRRGQEARLRCSPMKGHSHVYWYRQLPEEGLKFMVYLQKENIIDESGMPKERFSAEFPKEGPSILRIQQVVRGDSAAYFCASSPFQETQYFGPGTRLLVL
In turn, B2 registered a lowest peptide concentration recognized (IFNy ELISA, BSM cells loaded with different concentrations of peptide) in assay [1] of 1 nM. Further, the EC50 of peptide was above 1 nM in assay [2] and below 10 nM in assay [3].
